Experimental data published in paper PMC7380959 (Science Advances, 2020).

Biological target: H77 E1E2 (full-length E1E2, wild type) (Hepatitis C virus genotype 1a, isolate …)
Assay: ELISA

binding result: binds
B1: 212.1.1 IgG (antibody, V domains shown)
VH: QVQLVQSGAEVKKPGSSVKVSCKASGGTLSSYGISWVRQAPGQGLEWLGGSIPILGTSVYAQKFQGRVTMTADESTSTAHMELSSLRFDDTAIYYCAGVREGMAAISGKNAFDIWGQGTMVTVSS
VL: DIQMTQSPSSLSASVGDRVTITCRASQGISNYLAWYQQKPGKVPKLLIYAASTLQSGVPSRFSGSGYGTEFTLTISSLQPEDVATYYCQQHDNLPLTFGGGTKVEIK
